# Source: IntAct's records for PubMed 22632968
# B1: SUN domain-containing protein 2 (Homo sapiens), Q9UH99 (parent)
# chain: MSRRSQRLTRYSQGDDDGSSSSGGSSVAGSQSTLFKDSPLRTLKRKSSNMKRLSPAPQLGPSSDAHTSYYSESLVHESWFPPRSSLEELHGDANWGEDLRVRRRRGTGGSESSRASGLVGRKATEDFLGSSSGYSSEDDYVGYSDVDQQSSSSRLRSAVSRAGSLLWMVATSPGRLFRLLYWWAGTTWYRLTTAASLLDVFVLTRRFSSLKTFLWFLLPLLLLTCLTYGAWYFYPYGLQTFHPALVSWWAAKDSRRPDEGWEARDSSPHFQAEQRVMSRVHSLERRLEALAAEFSSNWQKEAMRLERLELRQGAPGQGGGGGLSHEDTLALLEGLVSRREAALKEDFRRETAARIQEELSALRAEHQQDSEDLFKKIVRASQESEARIQQLKSEWQSMTQESFQESSVKELRRLEDQLAGLQQELAALALKQSSVAEEVGLLPQQIQAVRDDVESQFPAWISQFLARGGGGRVGLLQREEMQAQLRELESKILTHVAEMQGKSAREAAASLSLTLQKEGVIGVTEEQVHHIVKQALQRYSEDRIGLADYALESGGASVISTRCSETYETKTALLSLFGIPLWYHSQSPRVILQPDVHPGNCWAFQGPQGFAVVRLSARIRPTAVTLEHVPKALSPNSTISSAPKDFAIFGFDEDLQQEGTLLGKFTYDQDGEPIQTFHFQAPTMATYQVVELRILTNWGHPEYTCIYRFRVHGEPAH
# Variants of: B1
# Conditions: with syne2_human SYNE2, Q8WXH0
row,Variant,effect of a mutation on the interaction
1,L536D,decreasing interaction strength
2,D542N,decreasing interaction strength

# Variants of: B1
# Conditions: with syne2_human SYNE2, Q8WXH0
# Remark: another data set of the same source
row,Variant,effect of a mutation on the interaction
1,S641E,disrupting interaction strength
2,H628A,disrupting interaction strength
